# Assay: soluble on expression in E. coli; label from the status in PepcDB or PDB records
row,Sequence,soluble on expression in E. coli
1,MGSDKIHHHHHHMISKLAEIVGEEWVISGDEAKLYSYPAFIPLKIEPPVVVLPGSEEEVISLVNFLNENNIKYIVRGSGTSLSGATTPTQGEVVISLTRLNRIYSLDNFEITVGPGLANFLINKTLGNSNLFYAPDPSSYVVSSIGGNISHDSGGMHTPKYGTTFDSIIRLKVLLSNGHVEEIGSSNFFDPTSIFVGAEGTLGVILRATLRLFPKPEVSKTILASFNSIDDAGKAVVSVYKAGVTPAAMEFLDKNSIIAIENTQYKANYPMAEAILLIELDGYSVNVEEEEVRVVSAIRNNNGEVFIPKDEEEKNRWWWGRKGAFPSFAYYSPAYLTLDANVPRSTLPTMLRFTYEISKKYGLPVANSFHAGDGTLHPLIGFDPKNADETIKAIKAAEEITKLAIKVGGVPSGEHGIGIEKIKFMKLYYSEDDLTLMRRLKATFDPKRLLNPCKLIPPAKNEICNTVNRIHTYLLEGDI,not soluble
2,MKTPTFGKREETLTYQTRYAAYIIVSKPENNTMVLVQAPNGAYFLPGGEIEGTETKEEAIHREVLEELGISVEIGCYLGEADEYFYSNHRQTAYYNPGYFYVANTWRQLSEPLERTNTLHWVAPEEAVRLLKRGSHRWAVEKWLAAASLEHHHHHH,soluble
3,MSVASLPECVKNFFPTEQLEFSSSITADEKPVLHEVFQKHSCFSQCGEMIDEVSKKHPELGKRLATVLEGNKKRLDGLSPAAVEYAKKLIHMVTTTLCSLTVGKPIDDADAKRLHQEFQSLSSEDQAALRKNNPDIKF,not soluble
4,MMCTKEFDYLNEANQATRFQNVWLPGRYTDCNHMKRKQEEVNGEENSTWRSSSSFQ,not soluble
5,MSLDAKLRYKAKKIKIVFFDIDDTLRNSKTGFIPTTIPTVFKQLREKGILTGIASGRGIFGVVPEIRDLKPDFFVTLNGAYIEDKKGQVIYQHQIEKSDVEEYISWAKQEGIEYGLVGSHDAKLSTRTDMMSEAINPIYPDLDVDPGFHEKEDIYQMWTFEDKGDDLHLPDSLSDKLRMVRWHQHSSDIVPISGSKATGVEKVVEHLGLKPEKVMVFGDGLNDLELFDYAGISVAMGISHDKIKEKADYITKTLEEDGIFDALEVFGMVEKELHFPQVDIETVEGPLATIKTNHGDLRIKLFPEHAPKTVANFVSLSKDGYYDGVIFHRIIKDFMIQGGDPTGTGMGGESIYGESFEDEFSEELYNIRGALSMANAGPNTNGSQFFIVQNQHLPYSKKEITRGGWPEPIAEIYANQGGTPHLDRRHTVFGQLADEASYAVLDVIAAVETGAMDKPVEDVVIETIEIEDEGHHHHHH,soluble
6,MEAEVDKLELMFQKAESDLDYIQYRLEYEIKTNHPDSASEKNPVTLLKELSVIKSRYQTLYARFKPVAVEQKESKSRICATVKKTMNMIQKLQKQTDLELSPLTKEEKTAAEQFKFHMPDL,not soluble
7,MTNNITPIHEYKKYWAECFGTAPFLPTSRKEMDALGWDSCDIIIVTGDAYVDHPSFGMAIIGRLLEAQGFRVGIIAQPEWQNKNAFMQLGKPNLFFGITAGNMDSMINRYTADKKLRHDDAYTPNNEGGKRPDRATLVYSQRCREAYKEVPIVLGGIEASLRRVAHYDYWSDKVRRSVLFDAKADILLFGNAERALVEVAHRIANGEDISTMTNIRGTAVNLPAAPEGYTVIDSSRIEKPRKEAFVPKNPYEVETQCETKKDEPVAQPITIRPSRHDAATTAVRLPSFEKLRNDRILYAHASRVLHLETNPYSGRALLQSHGDRELWVNQAPIPLTTEEMDFVFGLPYARVPHPMYGKAKIPAYDMIKTS,not soluble
8,MGSDKIHHHHHHLRPDLEHYYLIDQYLENKLTGQELAAFEQQLMQDKAFANEVQEQRMLNNLILEAELKSVRSQIEKDLLNMQTPSFFRMHWQWISAGALCLLGSLFFMLPGKKDIQTVSLQKSAASHIEKENNPDIAPVENTTQKTATALNLPAKTDISDIVTRTQATDTAQAGSLVIAGTPVIVPVNTKTEPALETTAGEENKKTDCSLTKITSVITTENSCMNTETGSIHIDKISGGIAPYTYTLNNKKIKEKNVSALGAGIYEVKISDRNGCLSEQKISILEKNCTPAIQQGTKFNINPMLGETCSIAFDTDKKGSLTIYNRSGKIVYRVTNPSLDYIEWNGSDGTGALAEAGLYVYLIDYTDGTKVTGEVTITR,not soluble
9,MGSDKIHHHHHHMPRPAPRVTNSPMNTSPTWGVVATVKAPEHEILRFAAWHLELGAHRLFLYLDDPDPAVFARLKAHPRIRVFACDDSYWQRRKLSRPVKHQARQTMNARHAYNRADVDWLAHIDVDEFIWSETPIAAVLSGLPDDTLCARMRPIEALAGGDALYKAFIPGGPARDGIVRRLYPTFGAFVKGGFMSHVAGKVFARTGMEKVDFRIHNIFRNKEMNPHQVELDMVDLCHRHGADWDHWIAAYRYRIAQGSYRPDLAPNVPREAGGLSMHELLSGIEEEQGEDGLRAFFDELNACAPEGRARLRAEGMLKHRPLDLDGAMQKQFPK,not soluble
10,MGSDKIHHHHHHMEEFVFFIEGNVNHPLTIDPTVWIFDERKVDLTTYFQELATKEDEMTAYKKAISKQWDKEITKGSEPPRPDTNGNVIKYEKQKLIHGSFGMPFMPFLKNSEPDSDAKTVTVVCADGNEHSFPIDEAAQFILGFAKNGSPLREDGPVHVYFGDGSNESTPIINVIRFSVS,not soluble
11,MGSDKIHHHHHHMRIQVASDLHHELAVSNSAMAARLEHADDAVDVLVLAGDIHNQTGAIDLYADYPVPVVYVCGNHEFYGTEMLQLLPELRRRAVGTSVKLLEKDELILNNVRFLGCTMWTDYHAFPLCLNTAMEYARNHMLDHQRIRESNNGRFEPEDAAEEQRAALEFLVRKIREPFPGKTVVITHHAPSARSIHQHEQNNPLVPAFASNLEFLASEADLWIHGHIHLSSDYRLGNCRVICNPRGYPGRRNRSNPALAYENAQFDARKVIDV,not soluble
12,MGSDKIHHHHHHMNINFENHGGNIEKEARQLGLSTENIIDASASIVPFKLPKKLNNYLINSIKNRSIRSYPDSSYFEVRNAISKWHNIEPSMILPGNGASELFTWAARDASLNGISSLPSPGFGDYQRALKCWNATYVHNPLPLSWTNNNPQSFPIEPKANVLWITNPHNPTGQLWSRSSIENLLANYKLVICDEAFISLVPGGESQSIIDLTNIYKNLIVIRSLTKFLGIAGLRVGYAVTNSDRLLKWKEIRDPWPVNTLAINATKMIMKDSKMHKKRLNKIHRWVEKEGKWLYQSLSSFSTIKPLPSTTNFQLIKSESSILNLLENLKKRGILLRDCRSFINLDEKWFRISLLKREQNIQIINTLKDYIN,not soluble
13,MKQLATPFQEYSQKYENIRLERDGGVLLVTVHTEGKSLVWTSTAHDELAYCFHDIACDRENKVVILTGTGPSFCNEIDFTSFNLGTPHDWDEIIFEGQRLLNNLLSIEVPVIAAVNGPVTNHPEIPVMSDIVLAAESATFQDGPHFPSGIVPGDGAHVVWPHVLGSNRGRYFLLTGQELDARTALDYGAVNEVLSEQELLPRAWELARGIAEKPLLARRYARKVLTRQLRRVMEADLSLGLAHEALAAIDLGMESEQ,soluble
14,MYSGARQGVISGKVTHHNEVFYEFFDKDYKYLFGKVKDIFTDVGAWVEYNVEKVQSHPKNCLHFAQNVNTEVKRTNAPTCDVFSSNRFQFDVREFNKVDFFQFDNADRQLSFKGTIRFNSNKNQFYHEYYGDVLVGEAEKLIRFGINEIDVMMNLYRSDEYTRGPHWYVKHYINKGKSYNINGYLSINGFVLRGPGGVVRNKNQVNIPPDALRPNNPVPNLSNGTSSQELAAAPNRNNFPTYATQRPRRNSDWDDEEPQTTAAPAGTSNSTAAASRPQVGDGKTGFRAFGGDAAPQSRGFDDGAIQRRAFGGLTTAPAAAPNRNNFPTYATQRPRRNSDWDDEDPQTTAAPAGTFNSAAASFRPQVGNGKAGSRAFGGDTAPQRSGLDDGATQRRAFEGLTIAPAAASNRNSFPTFATQRPRRNSDWGDEEPETTVAPAGKSNSTAAASRPQVGNGKTGSRPFGGDTAPQRRGLDDGAIQRRAFGGLTTAPAAAPNQNNFPTFATQRPRRNSDWDDEEPQATDAPAGTFNSAAASFRPQVGNGKAGSRAFGGDTAPQTSGLDDGAIERRAFGALATAPREVVLGGERAAGQLRPRGPESTIQPRRVPQSRQFGGVSATSNDPTTPEPRRINETPRVLLPPQSKGRRVDS,not soluble
15,MAHHHHHHMKCELASLIKENAQLGREMRGTPQLRVPQETDVAWRLRRDVLLHSEYPHVAACPEKDVERKDGRAVVVFQESKLQGEPPERTAAQKRSRSDHTAVVSVDPSVLKARASSLGERIVGAAGPSFEPYTAPPSWKMAKVLVGHRGWVWGAAVDPSNSWFATGGGDGVVKVWDLTTGALKLNLTGHKEGVRALSLSTLSPYMFTGSDDHSVKCWDLERNEIIRDFHGHKGSVHCVSTHPSLDIVLSGGRDKTVRVWDVRTRSCVHLLLGHSDSVMSLAVQQEDPQAISGGSDGMVYLWDIASGRAFTRLTRHKKPVRGLALSRQRVLVSCGADNIRVWSLPTGEFLFNASTLDNGKETKKEKEQEPQRWSCCSVSPRNVLAVGSQEGRLLFFDWSHPQQGPYQATKTRSVPGTLPGEGGINGLAFDASGSRLITAESDKSAKVWRTKE,not soluble
16,MHHHSHHHHSHMDVTIQHPWFKRTLGPFYPSRLFDQFFGEGLFEYDLLPFLSSTISPYYRQSLFRTVLDSGISEVRSDRDKFVIFLDVKHFSPEDLTVKVQDDFVEIHGKHNERQDDHGYISREFHRRYRLPSNVDQSALSCSLSADGMLTFCGPKIQTGLDATHAERAIPVSREEKPTSAPSSLEIRLLLEIRLL,soluble
17,MTLSILVAHDLQRVIGFENQLPWHLPNDLKHVKKLSTGHTLVMGRKTFESIGKPLPNRRNVVLTSDTSFNVEGVDVIHSIEDIYQLPGHVFIFGGQTLFEEMIDKVDDMYITVIEGKFRGDTFFPPYTFEDWEVASSVEGKLDEKNTIPHTFLHLIRKK,soluble
18,GHMTKLFSKVKESIEGIKMPSTLTINGKAPIVAYAELIAARIVNALAPNSIAIKLVDDKKAPAAKLDDATEDVFNKITSKFAAIFDNGDKEQVAKWVNLAQKELVIKNFAKLSQSLETLDSQLNLRTFILGGLKYSAADVACWGALRSNGMCGSIIKNKVDVNVSRWYTLLEMDPIFGEAHDFLSKSLLELKKSANVGKKKETHKANFE,soluble
19,MKIVTFQGGLGNQLFQYVFYLWLDMRCDKDNIYGYYPKKGLRAHNGLEIEKVFEVKLPNSSLSTDLIVKSIKLINKIFKNRQYISTDGRLDVNGVLFEGFWQDKYFWEDVDIVLNFRWPLKLDVTNSFIMTKIQANNSISIHIRRGDYLLPKYRNIYGDICNEEYYQKAIEYILKCVDDPFFFVFSDDIDWAKSIINVSNVTFVNNNKGKDSYIDMFLMSLCHHNIIANSTFSWWAAQLNKHSDKIMIAPIRWFKSLFKDPNIFTESWIRILEHHHHHH,not soluble
20,MFRRIFDAFNFMGSDEESTAAPVDQEGQEQLIDEDGWVNFNHPTESGDSDEFAFIENPEILEMGDETTIEVEMRTTPCPEVEAIKRREEYNLAKAKTAFRNHLESVMFADPDSGKDVRTFKSTHGSGRSVPTASGSIRRLNTQSQRSKKSSGKSNDRKTHRVSDLQLADA,not soluble
21,MEVEVEKDCRTECSREREIEKERSKDEFHGLIEIDGECMQSGNRKWKRIDSAVKVAKKEKKKKMKDEEKKKEDEDNLQHTIQQSE,soluble

# Source: the DeepSol protein solubility set
